The results in this text go back to US20230303681A1 (published 2023).

Where a chain is given by its changes, count along the chain named.

The labels stand for the following.
B1: anti-TMEM106B antibody TM-49 (antibody, V domains shown)
VH: QVQLQQPGAELVRPGSSVKLSCKASGYTFTRFWMHWVKQRPIQGLEWIGNIDPSDSQTHYNQKFKDKATLTVDKSSSTAYMQLSSLTSEDSAVYYCARLITVDYAMDYWGQGTSVTVSS
VL: QIVLTQSPAIMSASPGEKVTISCSASSSVSYMYWYQQKPGSSPKPWIHRTSNLASGVPVRFSGSGSGTSYSLTISSMEAEDAATYYCQQYHSYPPTFGAGTKLELK
notes: mouse IgG from hybridoma
B2: anti-TMEM106B antibody TM-33 (antibody, V domains shown)
VH: EFQLQQSGPELVKPGASVKISCKASGYSFTDYNMNWVKQSNGKSLEWIGVINPNYGTTSYNQKFKGKATLTVDQSSSTAYMQLNSLTSEDSAVYYCASSYWGQGTLVTVSA
VL: DIVMTQSQKFMSTTVGDRVSITCKASQNVGTAVAWYQQKPGQSPKLLIYSASNRYTGVPDRFTGSGSGTDFTLTISNMQSEDLADYFCQQYSSYPYTFGGGTKLEIK
notes: mouse IgG from hybridoma
B3: anti-TMEM106B antibody TM-15 (antibody, V domains shown)
VH: QVQLQQPGAEFVRPGASVKLSCKASGYTFTNYWITWVKQRPGHGLEWIGDIYPGSGNSNYNESFKRKATLTVDTSSSTAYMHLSSQTSEDSAVYFCARKAYGGFPYWGQGTLVTVSA
VL: DIQMTQSPASLSVSVGETVTITCRVSENIYNNLAWYQQKQEKSPQLLVFAATNLADGVPSRFSGSGSGTQFSLKINSLQSEDFGTYYCQHFWDTPFTFGSGTKLEIK
notes: mouse IgG from hybridoma
B4: anti-TMEM106B antibody TM-14 (antibody, V domains shown)
VH: QVQLQQSGPELVRPGTSVKVSCKASGYAFTNYLIEWVKQRPGQGLEWIGVINPGGGNTDYSEKFKDKATLTADKSSNTAYIQLSSLTSEDSAVYFCARSPYSSYVGYAVDYWGQGTSVTVSS
VL: DIQMTQSPSSLSASLGERVSLTCRASQDIGSNLNWLQQEPDGTIKRLIYATSSLDSGVPKRFSGSRSGSDYSLTISSLESEDFVVYYCLQYASSPRTFGGGTRLEIK
notes: mouse IgG from hybridoma
B5: anti-TMEM106B antibody TM-31 (antibody, V domains shown)
VH: QVQLQQSGAELAKPGASVKVSCKASGYTFISYWMNWVKQRPGQGLEWIGYINPTSGYTRYNQKFKDKATLTADKSSSTAYMQLSSLTYEDSAVYYCARSPPTVVLIGYFDYWGQGTTLTVSS
VL: DIKMTQSPSSMYASLGERVTFTCKASQDINSYLSWFQQKPGKSPKTLIYRGNGLVDGVPSRFSGSGSGQDYSLTISSLEYEDMGIYYCLQYDEFPFTFASGTKLEIK
notes: mouse IgG from hybridoma
B6: anti-TMEM106B antibody TM-8 (antibody, V domains shown)
VH: QIQLVQSGPELKKPGETVKISCKASGYTFTDYPMHWVKQAPGKGFKWMGVIYTDTGEPKYAEVFKGRFAFSLETSASTAYLQINNLKNEDTATYFCVRRLAYWGQGTLVTVSA
VL: B5 VL with F21I, Y49F, G51A, G53R, F96L, A99G, S100A, I106M
notes: mouse IgG from hybridoma
B7: anti-TMEM106B antibody TM-6 (antibody, V domains shown)
VH: QVQLQQSGAELVKPGASVKLSCKASGYTFTEYTIHWVKQRSGQGLEWIGWFYPGSTYIDYNEKFKDKATLTADKSSSTVYLELSRLTSEDSAVYFCARHEEDYSNWFPFWGQGTLVTVSA
VL: DIQMSQSSSYLSVSLGGRVTITCKASDHINNWLAWYQQKPGNAPRLLISGATSLETGVPSRFSGSGSGKDYTLSITSLQTEDVATYYCQQYWSSPYTFGGGTKLEIK
notes: mouse IgG from hybridoma
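Wherever fold over negative controls is given: hybridoma supernatants incubated 30 min on ice with human TMEM106B-expressing HEK293 cells, binding read as anti-mouse-APC median fluorescence on live cells, relative to secondary-antibody-only wells.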
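Wherever fold-change over parental HEK293 is given: flow cytometry binding of hybridoma supernatants to HEK293 cells transiently expressing human, cyno or mouse TMEM106B, read as anti-mouse-APC median fluorescence, live cells only, 30 min on ice.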

The first test deals with T1, GST (Pierce) (UniProt P08515 1-218 = GST, limits assumed).
T1 construct: control for the GST part of the fusion protein; also called GST protein; Glutathione-S-transferase
Nature of the test: array SPR, Ab immobilised.
For B1, the binding result was “no binding”.

For the next test, the target named is T2, mouse TMEM106B (mouse, UniProt Q80X71 2-275).
T2 construct: on transiently transfected HEK293 cells, or natively expressed on mouse Neuro2a cells; also called moTMEM106B; murine TMEM106B
Nature of the test: FACS Neuro2a.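 Further: flow cytometry of cells stained with antibody or hybridoma supernatant (purified antibody at 10 µg/ml) for 1 h on ice, propidium iodide–positive dead cells gated out.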
Molecule B2 showed an MFI of 233.
The same measure, in the same setting: for B3 the value was 470; for B4, 300; for B5, 325.
Take B6: the MFI amounted to 370.
The molecule B7 came in with an MFI of 371.
Regarding B1, the MFI was 291.

The target of the next test is T3, human TMEM106B (human, UniProt Q9NUM4 2-274).
T3 construct: Full-length, on transiently transfected HEK293 cells, or natively expressed on HeLa, U251 and A549 cells; also called huTMEM106B; huTMEM
Nature of the test: FACS HEK+huTMEM, 0.1 ug/ml.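 Further: flow cytometry binding of purified mouse IgG antibodies to HEK293 cells transiently expressing TMEM106B, read as median fluorescence intensity with propidium iodide positive dead cells gated out.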
In the case of B2, the MFI amounted to 1750.
Molecule B3 yielded an MFI of 2060.
Still for that read-out and setting: for B4 the value was 364; for B5, 1390.
B6: the MFI worked out at 305.
The same measure, in the same setting: for B7 the value was 327.
Regarding B1, the MFI is 3030.

In another test the target is T3, human TMEM106B. Nature of the test: FACS, HEK293 transfectants. On the technique in general: In flow cytometry, cells or beads pass a laser one at a time.
Turning to B2, the “fold over negative controls” value is over 2 fold.
Same read-out and setting: for B3 the value was over 2 fold; for B4, over 2 fold; for B5, over 2 fold.
Same read-out and setting: the same measure for B6: over 2 fold; for B7: over 2 fold.
As to B1, the “fold over negative controls” value was over 2 fold.

Another test deals with T3, human TMEM106B. Nature of the test: FACS A549, 1 ug/ml.
Description: (§1) Purified anti-TMEM106B antibodies were evaluated for their binding affinity to various TMEM106B-expressing cell lines including HEK293 transiently transfected with human/cyno/mouse TMEM106B, as well as HeLa cells and A549 cells. Antibodies tested for this experiment were mouse IgGs purified from hybridoma supernatant. Affinity binding to cells was determined as follows. Briefly, 1x10^5 cells were aliquoted per well in 96-well round bottom plates and incubated with 50 µL of purified anti-TMEM106B antibody at various concentrations (10x dilutions starting at 10 µg/ml) in FACS buffer (PBS + 2% FBS + 1 mM EDTA). […] Sorting was performed on a iQue (Intellicyt), with sort gates drawn to exclude dead (propidium iodide +) cells. Binding data was analyzed using median fluorescent intensity (MFI) and graphed in Prism. Values presented are MFI.
Turning to B2, the MFI worked out at 366.
For B3, the MFI turned out to be 650.
Molecule B4 returned an MFI of 409.
Same read-out and setting: the same measure for B5: 403; for B6: 393; for B7: 418.
B1 returned an MFI of 473.

The target in another test is T3, human TMEM106B. Nature of the test: FACS U251.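 Further: flow cytometry of cells exposed to antibody (purified at 10 µg/mL, or hybridoma supernatant) for 1 h on ice, with propidium iodide-positive dead cells gated out.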
Turning to B2, the MFI was 202.
The same measure, in the same setting: for B3 the value was 382.
Same read-out and setting: the same measure for B4: 270; for B5: 352.
Molecule B6 registered an MFI of 304.
B7 had an MFI of 304.
Same read-out and setting: for B1 the value was 434.

The next test deals with T3, human TMEM106B. Nature of the test: FACS HeLa.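 Further: flow cytometry of cells incubated with hybridoma supernatant or purified antibody at 10 µg/ml for 1 h on ice, propidium iodide–positive dead cells gated out.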
Description: All cells were cultured in either T75 or T150 flasks. […] The enzyme was quenched by addition of fresh media, and the cells were then distributed into 96-well plates for FACS analysis.
FACS analysis was performed as follows. Each cell type was aliquoted in 96-well round bottom plates (2x10^5 cells per well), washed once with FACS buffer (PBS + 2% FBS + 1 mM EDTA), and incubated with 50 µL of hybridoma supernatant or purified antibody (10 µg/ml in FACS buffer) on ice for 1 hour. […] Following this secondary incubation, the cells were again washed 2x with ice-cold FACS buffer and resuspended in a final volume of 50 µL of FACS buffer + 0.25 µl/well propidium iodide (Fisher Scientific # BDB556463). Analysis was performed on a FACSCanto system (BD Biosciences) or iQue (Intellicyt), with sort gates drawn to exclude dead (i.e., propidium iodide positive) cells.
Data is presented as mean fluorescence intensity (MFI).
For the molecule B2, the MFI is 148.
On the same count and under the same terms, the same measure for B3: 660; for B4: 307; for B5: 799.
On the same count and under the same terms, for B6 the value was 568; for B7, 520.
Regarding B1, the MFI was 187.

In the next test the target is T3, human TMEM106B. Nature of the test: FACS A549, 10 ug/ml.
Description: as §1
The molecule B2 showed an MFI of 514.
Same read-out and setting: the same measure for B3: 1980; for B4: 438.
The same measure, in the same setting: for B5 the value was 527; for B6, 492; for B7, 544.
Still for that read-out and setting: for B1 the value was 613.

The target in a further test is T3, human TMEM106B. Nature of the test: FACS A549.
Molecule B2 gave an MFI of 298.
B3 gave an MFI of 938.
As to B4, the MFI was determined as 896.
The same measure, in the same setting: the same measure for B6: 554; for B7: 1100; for B1: 924.

The target in a further test is T3, human TMEM106B. Nature of the test: FACS HEK+huTMEM, 10 ug/ml.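 Further: purified mouse IgG antibodies at 10 µg/ml bound to HEK293 cells transiently expressing human TMEM106B, measured by flow cytometry as median fluorescence intensity of propidium iodide negative live cells.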
B2 showed an MFI of 12100.
On to B3, for which the MFI turned out to be 63100.
With B4, the MFI turned out to be 1190.
Still for that read-out and setting: for B5 the value was 6060; for B6, 465; for B7, 581.
As to B1, the MFI stood at 16500.

Another test has as its target T2, mouse TMEM106B. Nature of the test: FACS, HEK293 transfectants.
For the molecule B2, the “fold-change over parental HEK293” value was 45.8 fold.
Still for that read-out and setting: the same measure for B3: 46.8 fold; for B4: 1.77 fold.
B5: the “fold-change over parental HEK293” value was 68.7 fold.
The same measure, in the same setting: the same measure for B6: 1.63 fold; for B7: 1.25 fold.
On the same count and under the same terms, for B1 the value was 21.3 fold.

A further test concerns the target T4, cynomolgus (cyno) TMEM106B (cynomolgus, UniProt Q9NUM4 2-274 (human entry)).
T4 construct: on transiently transfected HEK293 cells
Nature of the test: FACS, HEK293 transfectants.
Take B2: the “fold-change over parental HEK293” value stood at 7.74 fold.
On to B3, for which the “fold-change over parental HEK293” value was 57.7 fold.
For the molecule B4, the “fold-change over parental HEK293” value turned out to be 4.56 fold.
Still for that read-out and setting: for B5 the value was 64.7 fold; for B6, 2.62 fold.
Still for that read-out and setting: for B7 the value was 1.25 fold; for B1, 13.8 fold.

In the next test the target is T3, human TMEM106B. Nature of the test: FACS, HEK293 transfectants. The source holds these as a separate data set.
For B2, the “fold-change over parental HEK293” value is 10.2 fold.
As to B3, the “fold-change over parental HEK293” value was 31.4 fold.
For B4, the “fold-change over parental HEK293” value came to 3.96 fold.
The same measure, in the same setting: the same measure for B5: 22.1 fold; for B6: 2.1 fold; for B7: 4.13 fold.
For B1, the “fold-change over parental HEK293” value came out at 15.6 fold.

A further test concerns the target T1, GST (Pierce). Nature of the test: ELISA, coated GST.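 Further: ELISA on plates coated with GST alone at 1-10 µg/ml, antibodies applied at 100-1000x dilution, bound antibody detected by peroxidase substrate colour after acid stop.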
Take B2: the binding result is listed as “no binding”.
On the same count and under the same terms, the same measure for B3: “no binding”; for B4: “no binding”; for B5: “no binding”.
Turning to B6, the binding result was “no binding”.
On the same count and under the same terms, for B7 the value was “no binding”.

In a further test the target is T3, human TMEM106B. Nature of the test: FACS HEK+huTMEM, 0.01 ug/ml.
In turn, B2 yielded an MFI of 651.
Consider B3, for which the MFI amounted to 584.
Still for that read-out and setting: for B4 the value was 314.
The molecule B5 yielded an MFI of 596.
In turn, B6 displayed an MFI of 301.
The same measure, in the same setting: the same measure for B7: 294; for B1: 756.

The next test concerns the target T5, GST-fusion human TMEM106B truncated (human).
T5 construct: also called GST-TMEM106B-truncated protein; GST-TMEM106B (truncated)
Nature of the test: epitope binning, array SPR (Community 3, Bin 5).
Description: Epitope binning of the anti-TMEM106B antibodies was performed by Carterra (Salt Lake City, Nevada, USA) using a pre-mix epitope binning approach.
Turning to B2, the binding result is “no binding (tested: 55 nM antigen)”.
The same measure, in the same setting: for B3 the value was “no binding (tested: 55 nM antigen)”; for B4, “no binding (tested: 55 nM antigen)”; for B5, “no binding (tested: 55 nM antigen)”.
Take B6: the binding result was “no binding (tested: 55 nM antigen)”.
Still for that read-out and setting: for B7 the value was “no binding (tested: 55 nM antigen)”.
On the same count and under the same terms, the same measure for B1: “no binding (tested: 55 nM antigen)”.

The target of a further test is T3, human TMEM106B. Nature of the test: FACS HEK+huTMEM, 1.0 ug/ml.
In turn, B2 showed an MFI of 5630.
Regarding B3, the MFI is 14300.
The same measure, in the same setting: for B4 the value was 680.
Same read-out and setting: the same measure for B5: 3680; for B6: 317.
As for B7, the MFI turned out to be 393.
As for B1, the MFI amounted to 15700.
